Assay: soluble on expression in E. coli; label from the status in PepcDB or PDB records

Question: For “SAEHVLTMLNEHEVKFVDLRFTDTKGKEQHVTIPAHQVNAEFFEEGKMFDGSSIGGWKGINESDMVLMPDASTAVIDPFFADSTLIIRCDILEPGTLQGYDRDPRSIAKRAEDYLRATGIADTVLFGPEPEFFLFDDIRFGASISGSHVAIDDIEGAWNSSTKYEGGNKGHRPGVKGGYFPVPPVDSAQDIRSEMCLVMEQMGLVVEAHHHEVATAGQNEVATRFNTMTKKADEIQIYKYVVHNVAHRFGKTATFMPKPMFGDNGSGMHCHMSLAKNGTNLFSGDKYAGLSEQALYYIGGVIKHAKAINALANPTTNSYKRLVPGYEAPVMLAYSARNRSASIRIPVVASPKARRIEVRFPDPAANPYLCFAALLMAGLDGIKNKIHPGEPMDKNLYDLPPEEAKEIPQVAGSLEEALNALDLDREFLKAGGVFTDEAIDAYIALRREEDDRVRMTPHPVEFELYYSV”, which “soluble on expression in E. coli” value is on record?
Answer: The value was “soluble”.

Question: With “MIFTYNREHVGDTLMVIVKDSQGAKLDVDRRGQVARVYLQDSKETVAWNIFEVSSLIVIEGAGQITLSDQDIKILNAELLKEGFEDSLVNNIEPTFVVAQIKEIIDHPDSDHLHICQAEINDGKTVQIVCGAPNASVGLKTVAALPGAMMPNGSLIFPGKLRGEDSFGMLCSARELALPNAPQVRGIIELSDQVIVGESFDANKHWKNLEHHHHHH” as the sequence, how does the “soluble on expression in E. coli” value read?
Answer: The value was “soluble”.

Question: Which “soluble on expression in E. coli” value does the source give for “MSLNPASPFATLTDRIDWQKVDGLVPAIVQDFQSSQVLMMGYMNPEALQKTLDTQQVTFFSRSKQRLWTKGETSGHVLQLKNIALDCDQDTLLVKVNPIGPTCHTGTVTCWDGDAQEESQMVWLHQLEQLLAERKNADPSSSYTASLYARGTKRIAQKVGEEGVEVALAATAGDKEELICESADLMYHLLVLLQEQGLAMNDVINKLKERHKEGHHHHHH” here?
Answer: Its value is “soluble”.

Question: With “MAMTLVRRDARPMELTPFRTWSPFTLVDEVNRLFEEAFSDLVRPAAAYVAPADLYETDEALILEMAVPGMTPEDLEVSLEGNKLTIRGQVKPVADERVRRYYLQEMAHGSFVRTFTLPVEVDASGVKAEFRNGILRLTLPKVAEARARRIPIEVVQ” as the sequence, how does the “soluble on expression in E. coli” value read?
Answer: The value was “soluble”.

Question: With “MLAAAHKAGGTFAAESILILRNRLSGVADILADFPDDVPVYVAEAPVLDGIVGFHLHRGILALGRRVRDDGLEQMTAALPASSLVLVGCGISNHDNLGAMFRNAAAFYADAVLLDETCCDPLYRKALRVSVGSVLSVPYHRGGGAVEMLERLSEEGFAIWGLSPDGKTEIRDIPRSERMALVIGTEGEGLPQSVLSRFQTARIAQSPQVDSLNAGTASGLALYQMAGVMGRV” as the sequence, how does the “soluble on expression in E. coli” value read?
Answer: The value was “not soluble”.

Question: With “MHHHHHHMKEIATEYSFIKYTELELDDNGSIKQLSIPNKYNVIYAIAINDELVYIGKTKNLRKRINYYRTAINRKDKTSDSTKSALIHSALKEGSKVEFYARQCFNLSMTNELGTMTIATIDLEAPLFIKLFNPPWNIQHKKK” as the sequence, how does the “soluble on expression in E. coli” value read?
Answer: Its value is “soluble”.

Question: For “SMSEHSAIVTWKRKDSEAFTDNQYSRAHTWEFDGGSKILASASPHVVPVPLSVEANVDPEEAFVAALSSCHMLVFLSIAAKQRYLVESYTDNAVGILGKNSKGKTSVTKVVLRPQVVFSGTSKPTLQQLEKMHHLAHENCFIANSVETEVVTEII”, which “soluble on expression in E. coli” value is on record?
Answer: Its value is “soluble”.

Question: For “MSLSYVHTEIQNDALYITLDYPEKKNGLDAELGTSLLEAIRAGNNETSIHSIILQSKHRAYFSSGPRLEDLLICASDQSDVRLREVLHVLNHCVLEIFTSPKVTVALINGYAYGGGFNMMLACDRRIALRRAKFLENFHKMGISPDLGASYFLPRIIGYEQTMNLLLEGKLFTSEEALRLGLIQEICENKQELQERVKNYLKAVSEGYVPAIAATKKLLKGKAAEELKQQLEQETEELVALFKQTEIKKRLEALVEGHHHHHH”, which “soluble on expression in E. coli” value is on record?
Answer: The value was “soluble”.

Question: For “MSLASVKEAAAVRPPLNQILFGPPGTGKTYEAIEKALEILDPSFLLQLGDDESNERRRALKRRYDELAKEGLVQFVTFHQSFSYENFVEGLSASSDPDTKQVRYEVEDGVFKELCESARTRLVRRSDDAPLELSGRRIWKLSLGDSITEGHIFEECMEKGLALMGFGNNADFSQCQSREDIQKMFAASGEPLSLGAYPITAIKTFVCQMKLGDLIVVSEGNLKFRAIGEITGDYQLLPRDSDTYSQARPVRWLRGYKPALPYGALMENRFSQMTVYELRAGSIDHDKFRELLKSECIATGADRPHVLIIDEINRGNVSRIFGELITLIEPSKRSGAAEALEVLLPYSKDPFSVPDNVYLIGTMNTADRSLAGLDIALRRRFDFVEMAPRPDKLTGVKVAEIDISAVLETMNRRIEVLLDREHRLGHAYFMSLENSNDLSRLSNIFRQQIIPLLQEYFFEDWQRIAWILNDHRKDERFRFIVPAPYSVDSLFGDTGQVAQDSKAWRMNEEAFHKPQSYLGIVGDGKEGHHHHHH”, which “soluble on expression in E. coli” value is on record?
Answer: Its value is “soluble”.

Question: With “SLNRLFKRYSQQVQLILEATRAIGDGNLKERIDTNQVQEELNDIASAINFMVDSLDQYIHDIYTLEIKQRDAHMRALQSQINPHFLYNTLEYIRMYALSRQQEELADVVYAFSTLLRNNINQEKTTTLAEEISFCEKYVYLYQMRYPDQFAYKFEIEETIADVEIPKFIIQPLVENYFVHGIDYQRQDNAIKVHAYREGEKIIVAVVDNGKGITANRLEEIRERLNQTEIDTEQSIGLRNVHERLQRFFGESYGLTIEGKEGEGTTIRLSFVA” as the sequence, how does the “soluble on expression in E. coli” value read?
Answer: Its value is “soluble”.

Question: With “MGSDKIHHHHHHMYEEWKIVKREAPILGNDQLIENIWKMKREDSPYDIISLHKVNLIGGGNDAVLILPGTWSSGEQLVTISWNGVHYTIPDYRKSIVLYLARNGFNVYTIDYRTHYVPPFLKDRQLSFTANWGWSTWISDIKEVVSFIKRDSGQERIYLAGESFGGIAALNYSSLYWKNDIKGLILLDGGPTKHGIRPKFYTPEVNSIEEMEAKGIYVIPSRGGPNNPIWSYALANPDMPSPDPKYKSISDFLMDSLYVTGSANPYDYPYSKKEDMFPILASFDPYWPYRLSLERDLKFDYEGILVPTIAFVSERFGIQIFDSKILPSNSEIILLKGYGHLDVYTGENSEKDVNSVVLKWLSQQR” as the sequence, how does the “soluble on expression in E. coli” value read?
Answer: The value was “not soluble”.

Question: For “MEKLEALKRLFPGKVDLSESERLRHGKDEGYPEARPVLAVVYPEGVEDVQKALRWAREWGVAVIPFGAGTSLEGHLYPVREAISLDLSRMNRVLEVRPQDFSCVVEPGLTRKALNEALKGTGLFFPVDPGADASLGGMAATNASGTTTVRYGGMRQNVLALQVVLASGEVLELGRGVRKTSSGYDLKDLFIGSEGTLGVITRLTLRLHPLPEHVHTLRVFFPGVEEAAEASYRIMASGLPVARLELLDELAMRALNRYLKAGFPERPALFLEFHASTKEALEAERASALELVREAGALEVEAATTEEERRRQWEARHQAYWALVHLFPGHRFMITDTAVPLSRLPEMVRFAQGLLREMGLTGNILGHVGDGNFHTLIPVLPEDYPKAEAYAERLVEKALELGGTCTAEHGVGLRKRKFLPKEHGPALEWMRRLKALFDPEGLLNPGKVV”, which “soluble on expression in E. coli” value is on record?
Answer: Its value is “soluble”.

Question: With “SNGEEEFFDAVTGFDSDNSSGEFSEANQKVTGMIDLDTSKNNRIGKTGERPSQENGIQKHRTSLPAPMFSRSDFSVWTILKKCVGLELSKITMPIAFNEPLSFLQRITEYMEHVYLIHRASCQPQPLERMQSVAAFAVSAVASQWERTGKPFNPLLGETYELIREDLGFRFISEQVSHHPPISAFHSEGLNHDFLFHGSIYPKLKFWGKSVEAEPRGTITLELLKHNEAYTWTNPTCCVHNVIIGKLWIEQYGTVEILNHRTGHKCVLHFKPCGLFGKELHKVEGHIQDKNKKKLFMIYGKWTECLWGIDPVSYESFKKQERRGDHLRKAKLDEDSGKADSDVADDVPVAQETVQVIPGSKLLWRINTRPPNSAQMYNFTSFTVSLNELETGMEKTLPPTDCRLRPDIRGMENGNMDLASQEKERLEEKQREARRERAKEEAEWQTRWFYPGNNPYTGTPDWLYAGDYFERNFSDCPDIY” as the sequence, how does the “soluble on expression in E. coli” value read?
Answer: The value was “soluble”.

Question: With “MGSDKIHHHHHHMRPTAIGSVCTPFVCWSCVARHGNTHVCWSCSVASVPCVTRAPVSVPGGLAAVCRTWLRRKGDLMNQGRPGVHVRVFDARVGDRVVVEPKGVGDRFMSVFVGWDAGRYLIVKMPSNLALKDHLYPDKPVVLRYLHCTGEVHGCETTIETSVAVPHRLLFLRHPESVEAVSLRKDAWVNCSVPALLRHEAGNMAGYLLDVSRGGCKVAYFEEEGLPTLAAGTEVQCSFRLPGGEQPVEVGAVVRNVAGEGGRIVCGLEFRDAPEPVVAAIGAYVDAAAFLVGTSCADRVVR” as the sequence, how does the “soluble on expression in E. coli” value read?
Answer: The value was “not soluble”.

Question: With “MIVPALIGSLPRPIGLAKKIELYSIGRLSEEKLEEAYRSYTRKAFENLKKARIKVITDGLYRWDDIFNPLIRFIDGVEVNGLFKFYENNFFYRSPVVRGELSLKENPLPGWISIAQEIKEDVYPEAELKAVLPGPVTLAYHSINEYYKDLNELTEAYATVLRELIKELDVKIMELQEPSLAAELSKATRESEEHVSKEVAKKVIEDLARVKKLWVVTYFGTPQVVPKDVILNIDLIEGNVPDEVKGEVGLGIVNARETKMERADRLKDKLRKYIRKFEKVYVTPNTLLDFLPERVAWKKLKLLGRLGGELEHHHHHH” as the sequence, how does the “soluble on expression in E. coli” value read?
Answer: The value was “not soluble”.

Question: Which “soluble on expression in E. coli” value does the source give for “MGSDKIHHHHHHMNFILELLRREQGRQQKELEFSQLPYQQRVAQLKEQKLPLFFYKYHSLHSHNPNKPQEKWEHASDYLINSRFYLSRPANFNDPFDMRAYFTDSVPKEKKRYFLDQLLKIRTPQLTEKDRVLEVKKLLDNPEKLRTIHKLTLDEAVDSFGVSCLSTAPCNILMWSHYANHHRGIAFQFNFAIDIFSFKWLQPVSYSNDFPGIEYFERRDNKYSIALLTKHHGWEYEKEWRIVKPNGAGTYQDFNSKILTGVILGCRIDRKDEDKIRTMIEQRKEQGLSSVKLYKLRQHESRYKLVIKHVE” here?
Answer: Its value is “not soluble”.

Question: For “MLGPVLRLVVKAGKERKLRNFYPNLYRDEIAAPPEGVGVAEAVDAEGHFLAVGYYDPRSRVPFRAFRFDPGPLNRAFFQGRFARALRRRQGLGESHRLVHGEADGLPGLVVDRFGEVLVLQVRSRGMEALREVWLPALLEVVAPKGVYERSDVEARRQEGLPERVGVVYGEVPEVLEVEEDGLRFPIPLALAQKTGYYLDQRENRRLFEAMVRPGERVLDVYSYVGGFALRAARKGAYALAVDKDLEALGVLDQAALRLGLRVDIRHGEALPTLRGLEGPFHHVLLDPPTLVKRPEELPAMKRHLVDLVREALRLLAEEGFLWLSSCSYHLRLEDLLEVARRAAADLGRRLRVHRVTYQPEDHPWSLHIPESLYLKTLVLQDDPL”, which “soluble on expression in E. coli” value is on record?
Answer: Its value is “soluble”.

Question: With “MAHHHHHHMIVKVFDYIYISNVYNANDIYELIKLNIGGVLTCFDCTCIEWCHHNDTNVTNKIFYKDIFVNTKKDLIKCDVPIITNKSVNSDIIGGTHQINNYYNEQNNNYHDNTYKEFTQTHKTNIDPSQIKSDHINEERKEHYDYIIFPSDIINNTQCNNNNLKDYIKSMLILKEDAYIDFDVIHMD” as the sequence, how does the “soluble on expression in E. coli” value read?
Answer: The value was “not soluble”.

Question: For “MTRLSSGAKLNHPESSVCSPVYSWSTCIRKTSPVLFSSTIFALRRMTAPSAPCAQAPQLTRRWAKIVVENRTGSHFKIQVLHEYTGEQTNDSGYIDFKPDDRITVFEKIYYNTGFFTTGVDNWKVHGTKLIQVETEGTIARNIFGKFFVDGLPYSTGHGAFAKWKKHTLRADDDGQETVIKVFQTEVQFISPSGRSVTTFNTLGENILPFSQNPQKQ”, which “soluble on expression in E. coli” value is on record?
Answer: The value was “not soluble”.

Question: Which “soluble on expression in E. coli” value does the source give for “MIRYKIYQNQQKKGLNAGKWFARAVSDETFDLSKLAEHMSKHNSPYSSGVIKGVLTDMVDCIKELLLDGKSVKIDDLAIFGVGIRSKAAETLEEFSLEKNITGMRLKARATGNLSTTNLKLDSQLKQQAEYQKPTTPGGGGSGSGNTPDPKPNPDEGDEEAPDPTV” here?
Answer: Its value is “not soluble”.

Source: the DeepSol protein solubility set
